According to patent publication US20240287208A1 (CONCEPT TO MEDICINE BIOTECH, published 2024):

Key:
human CD40-His protein [1] = target: T1, human CD40-His protein (human, UniProt P25942 21-193); assay: ELISA, plate-coated human CD40-His
T1 construct: His-tagged recombinant protein; also called human CD40-his tag; recombinant CD40 protein
Protocol: (§1) To evaluate the binding activity of clones 42p155, 2p834, 2p931, 42p655, 2p1294, 2p957, 42p495, 3p78, 2p415, 2p442, 2p551, 2p80 and 2p1130, the chimeric monospecific antibody (mAb) from these clones were subjected to ELISA test, along with selicrelumab, the clinical benchmark anti-CD40 agonist antibodies.
(§2) Briefly, microtiter plates were coated with human CD40-His protein at 1.0 μg/ml in PBS, 100 μl/well at 4° C. overnight, then blocked with 150 µl/well of 1% BSA. Ten-fold dilutions of 42p155, 2p834, 2p931, 42p655, 2p1294, 2p957, 42p495, 3p78, 2p415, 2p442, 2p551, 2p80 and 2p1130 antibodies starting from 100 nM were added to each well and incubated for 1 hour at RT. The plates were washed with PBS/Tween and then incubated with Anti-Human IgG (H&L) (GOAT) Antibody Peroxidase Conjugated for 30 mins at RT. After washing, the plates were developed with TMB substrate and analyzed by spectrophotometer at OD 450 nm.

human OX40 protein = target: T2, human OX40 protein (human, UniProt P43489 29-216, limits assumed); assay: ELISA, plate-coated protein
T2 sequence (looked up): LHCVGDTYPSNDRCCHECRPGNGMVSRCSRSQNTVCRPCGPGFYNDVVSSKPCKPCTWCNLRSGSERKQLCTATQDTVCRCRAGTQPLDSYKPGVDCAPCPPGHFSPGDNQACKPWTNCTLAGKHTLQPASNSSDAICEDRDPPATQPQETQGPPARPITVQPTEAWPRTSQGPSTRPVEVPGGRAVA
Protocol: (§3) To evaluate the cross reactivity of chimeric anti-CD40 antibodies to other family members of TNF receptors, the ELISA binding towards human 4-1BB and human OX40 were performed.
as §2, with “4-1BB protein or human OX40” for “CD40-His”, “1” for “1.0”, “μl/well” for “µl/well”

human 4-1BB protein = target: T3, human 4-1BB protein (human, UniProt Q07011 24-186); assay: ELISA, plate-coated protein
T3 construct: also called 4-IBB
Protocol: as §3
as §2, with “4-1BB protein or human OX40” for “CD40-His”, “1” for “1.0”, “μl/well” for “µl/well”

human CD40-His protein [2] = target: T1, human CD40-His protein; assay: SPR Biacore T200, antibody captured on Protein A, CD40-His as analyte
Protocol: Bispecific antibodies with each of the 42p155, 2p834, 2p931, 42p655, 2p1294, 2p957, 42p495, 3p78, 2p415, 2p442, 2p551 and 2p1130 clones, as well as 2p80 monospecific antibody, were captured using Protein A chip. A serial dilution of human CD40-his tag protein was injected over captured antibody for 2 mins at a flow rate of 30 μl/min. The antigen was allowed to dissociate for 6 min. All the experiments were carried out on a Biacore T200. Data analysis was carried out using the Biacore T200 evaluation software.

[3] = target: T4, cynomolgus CD40-His protein (cynomolgus, UniProt G7PG38 21-193); assay: ELISA, plate-coated cynomolgus CD40-His
T4 construct: His-tagged recombinant protein; also called cyno CD40 antigen
Protocol: as §1
as §2, with “The binding affinity of these clones to cynomolgus CD40 was also tested. Microtiter” for “Briefly, microtiter”, “cynomolgus” for “human”, “µl/well” for “μl/well”, “nm. As shown in FIG. 1B and Table 2, all these clones bound to cynomolgus CD40 at high activity, showing good cross-reactivity between human and cynomolgus CD40 proteins.” for “nm.”

[4] = target: T5, human CD40 on the cell surface (human, UniProt P25942 21-277); assay: cell-based or functional assay
[5] = target: T5, human CD40 on the cell surface; assay: FACS, Jurkat cells overexpressing human CD40, PE anti-human IgG, MFI
Protocol: To evaluate their binding affinity to cell surface CD40, chimeric anti-CD40 monospecific antibodies were tested in Jurkat cell lines that overexpressed CD40 by FACS. A total number of 1×10⁵ Jurkat-CD40 cells in each well were incubated with 10-fold serially diluted antibodies starting from 100 nM for 30 minutes at 4° C. in FACS buffer. After wash by FACS buffer, PE conjugated-anti-human IgG antibody was added to each well and incubated at 4° C. for 30 minutes. After wash, MFI of PE was evaluated by MACSQuant Analyzer 16.

[6] = target: T5, human CD40 on the cell surface; assay: FACS, human dendritic cells, MFI
human 5T4 = target: T6, human 5T4 (human, UniProt Q13641 32-355, limits assumed); assay: competitive ELISA on human 5T4
T6 construct: also called hu5T4
T6 sequence (looked up): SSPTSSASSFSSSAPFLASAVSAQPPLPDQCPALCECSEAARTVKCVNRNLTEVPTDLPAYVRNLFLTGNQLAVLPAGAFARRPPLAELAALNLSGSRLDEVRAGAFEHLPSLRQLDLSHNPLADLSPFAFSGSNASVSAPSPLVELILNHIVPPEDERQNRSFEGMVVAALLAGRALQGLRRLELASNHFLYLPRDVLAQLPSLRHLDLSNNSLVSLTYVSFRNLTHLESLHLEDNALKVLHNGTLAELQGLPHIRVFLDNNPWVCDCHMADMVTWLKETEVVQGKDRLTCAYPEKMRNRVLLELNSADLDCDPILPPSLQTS

T1 sequence (P25942 21-193 limits assumed): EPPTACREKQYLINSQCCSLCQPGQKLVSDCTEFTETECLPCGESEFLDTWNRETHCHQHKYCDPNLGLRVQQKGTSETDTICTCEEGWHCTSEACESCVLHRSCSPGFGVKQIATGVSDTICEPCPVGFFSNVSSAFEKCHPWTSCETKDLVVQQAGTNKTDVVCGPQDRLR
T5 sequence (P25942 21-277): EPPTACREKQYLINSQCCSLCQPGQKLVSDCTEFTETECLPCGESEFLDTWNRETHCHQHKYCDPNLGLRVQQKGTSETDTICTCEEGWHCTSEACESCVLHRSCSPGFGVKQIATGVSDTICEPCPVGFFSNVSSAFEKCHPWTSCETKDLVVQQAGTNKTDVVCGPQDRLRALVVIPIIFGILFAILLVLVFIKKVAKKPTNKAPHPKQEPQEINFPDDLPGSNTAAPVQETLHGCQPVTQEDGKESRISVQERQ

B1: 2p80 chimeric monospecific antibody (antibody, V domains shown)
VH: QLQLVESGGGLVQAGGSLRLSCAASGRIFSSYAMSWFRQAPGKEREFVATIGWIGENTYYADSVKGRFTISRDNAKNTLYLQMNSLKPEDTAVYYCAAGLPANRYYDYWGQGTQVTVSS
notes: Chimeric monospecific antibody; also called 2p80 cAb
EC50 (human CD40-His protein [1]): 3080 pM
binding result (human OX40 protein): no binding (tested: 100 nM (highest concentration))
binding result (human 4-1BB protein): no binding (tested: 100 nM (highest concentration))
Kd (human CD40-His protein [2]): 213000 pM
koff (human CD40-His protein [2]): 0.000293 s⁻¹
kon (human CD40-His protein [2]): 1380 M⁻¹ s⁻¹
EC50 [3]: 8290 pM
CD40 NF-κB luciferase reporter (Jurkat), RLU [4]: > 10 nM

B2: 2p834 chimeric monospecific antibody (antibody, V domains shown)
VH: QSQLVESGGGLVQPGGSLRLSCAASGFAFRRYTMSWVRQAPGKGLEWVSTITHNGSITTYAESAQGRFTISRDNAKNTLYLQMNSLKPEDTAVYYCAQGGGSNYYRESWGQGTQVTVSS
notes: Chimeric monospecific antibody
EC50 (human CD40-His protein [1]): 760 pM
binding result (human OX40 protein): no binding (tested: 100 nM (highest concentration))
binding result (human 4-1BB protein): no binding (tested: 100 nM (highest concentration))
EC50 [3]: 200 pM
CD40 NF-κB luciferase reporter (Jurkat), RLU [4]: > 10 nM
EC50 (read off the curve) [5]: ~200 pM

B3: 3p78 chimeric monospecific antibody (antibody, V domains shown)
VH: PVQLVESGGGLVQPGGSLRLSCAASGFTFRNYAMSWVRQAPGKGLEWVSTITHNGAITTYAESAQGRFTISRDNAKNTLYLQMNSLKPEDTAVYYCAQGGGSNYYRESWGQGTQVTVSS
notes: as for B2
EC50 (human CD40-His protein [1]): 2950 pM
binding result (human OX40 protein): no binding (tested: 100 nM (highest concentration))
binding result (human 4-1BB protein): no binding (tested: 100 nM (highest concentration))
EC50 [3]: 2840 pM
CD40 NF-κB luciferase reporter (Jurkat), RLU [4]: > 10 nM
EC50 (read off the curve) [5]: ~2000 pM

B4: 2p931 chimeric monospecific antibody (antibody, V domains shown)
VH: AVQLVESGGGLVQPGGSLRLSCAASGFSFRNYMMNWVRQAPGKGLECLSSITSAGDITSYTESVKGRFTISRDNAKNTLYLQMNSLKPEDTAVYYCAQGGCGNYYRESWGQGTQVTVSS
notes: as for B2
EC50 (human CD40-His protein [1]): 990 pM
binding result (human OX40 protein): no binding (tested: 100 nM (highest concentration))
binding result (human 4-1BB protein): no binding (tested: 100 nM (highest concentration))
EC50 [3]: 260 pM
CD40 NF-κB luciferase reporter (Jurkat), RLU [4]: > 10 nM
EC50 (read off the curve) [5]: ~200 pM

B5: b16 (42p155z2)-LALA humanized anti-5T4/CD40 bispecific antibody (bispecific antibody, human IgG1, kappa, L234A L235A)
heavy 1: QVQLVQSGAEVKKPGASVKVSCKASGYAFSSSWMNWVRQAPGQGLEWMGRIYREDGHTNYNGKFKGRVTMTADKSITTAYMELSRLRSDDTAVYYCANGGAMDYWGQGTLVTVSSASTKGPSVFPLAPSSKSTSGGTAALGCLVKDYFPEPVTVSWNSGALTSGVHTFPAVLQSSGLYSLSSVVTVPSSSLGTQTYICNVNHKPSNTKVDKKVEPKSCDKTHTCPPCPAPEAAGGPSVFLFPPKPKDTLMISRTPEVTCVVVDVSHEDPEVKFNWYVDGVEVHNAKTKPREEQYNSTYRVVSVLTVLHQDWLNGKEYKCKVSNKALPAPIEKTISKAKGQPREPQVCTLPPSREEMTKNQVSLSCAVKGFYPSDIAVEWESNGQPENNYKTTPPVLDSDGSFFLVSKLTVDKSRWQQGNVFSCSVMHEALHNHYTQKSLSLSPGK
light: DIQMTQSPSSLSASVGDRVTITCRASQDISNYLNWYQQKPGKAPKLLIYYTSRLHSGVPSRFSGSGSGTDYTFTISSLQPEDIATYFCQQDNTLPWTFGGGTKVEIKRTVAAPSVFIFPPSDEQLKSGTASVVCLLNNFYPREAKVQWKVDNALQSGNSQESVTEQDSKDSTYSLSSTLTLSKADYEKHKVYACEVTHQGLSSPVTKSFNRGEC
heavy 2: not shown
EC50 (read off the curve) [6]: ~500 pM

B6: 14G12 anti-5T4 mouse monoclonal antibody (antibody, V domains shown)
VH: EVQLQQSGPELVKPGASVKISCKASGYAFSSSWMNWVKQRPGKGLEWIGRIYREDGHTNYNGKFKGKATLTADKSSTTAYMQLTSLTSEDSAVYFCANGGAMDYWGQGTSVTVSS
VL: DIQMTQSTSSLSASLGDRVTISCRASQDISNYLNWYQQKPDGTVKLLIYYTSRLHSGVPSRFSGSGSGTDYSLTISNLEQEDIATYFCQQDNTLPWTFGGGTKLEIK
notes: Mouse monoclonal antibody from hybridoma
binding result (human 5T4): binds

B7: 393E9 anti-5T4 mouse monoclonal antibody (antibody, V domains shown)
VH: EVKLVESGGGLVQPGGSLSLSCAASGFTFTDYYMSWVRQPPGKALEWLGFIRNKGNGYTTENSASVKGRFTISRDNSQSILYLQMNALRAEDSATYYCARYRGNPHYAMDYWGQGTSVTVSS
VL: DIVLTQFPASLAVSLGQRATISCRASESVEFYGTSFLQWYQQKPGQPPKLLIYGASNVESGVPARFSGSGSGTDFSLSIHPVEEDDIAMYFCQQSRKVPSTFGGGTKLEIK
notes: as for B6
binding result (human 5T4): binds

B8: 159D5 anti-5T4 mouse monoclonal antibody (antibody, V domains shown)
VH: DVQLVESGGGLVQPGGSRKLSCTASGFTFSNFGMHWVRQAPETGLEWVAYISSGSSTFYYADSVKGRFTISRDNPKNTLFLQMTSLRSEDTAMYFCARSPAYYRYGLDYWGQGTTLTVSS
VL: DIVLTQSPASLAVSLGQRATISCRASQSVSSSTFSYMHWYQQKPGQPPKLLIKSSSNLESGVPARFSGSGSGTDFTLNIHPVEEEDTATYYCQHSWEIPYTFGGGTKLEIK
notes: as for B6
binding result (human 5T4): binds

B9: 286B4 anti-5T4 mouse monoclonal antibody (antibody, V domains shown)
VH: DVQLHESGPGLVKPSQSLSLTCSVTGYSITNNYYWNWIRQFPGNNLEWMGYITYDGSNNYNPSLKNRISVTRDTSKNQFFLKLSSVTTEDTATYYCTRGGGQLRFDYWGQGTTLTVSS
VL: SIVMTQTPKFLIVSAGDRVTITCKASQSVSNEVTWYQQKPGQSPKMLIYYASNRYTGVPDRFTGSGYGTDFTFTINTVQAEDLAIYFCQQDYSSPWTFGGGTKLEIK
notes: as for B6
binding result (human 5T4): binds
